Broadly, the pIC50 is the IC50 on a negative log10 scale, so that one unit is a factor of ten. Read a low pIC50 as a large IC50.

This is an account of results in paper PMC5240640.

pIC50: −log10 of the molar value.

Experiment [1] addresses His-tagged FcγRIIIa (R&D Systems, cat no. 4325-FC) (UniProt P08637).
The target is the same in experiment [2]. This is another data set of the same source.
Experiment [3] deals with His-tagged FcγRI (R&D Systems, cat no. 1257-FC) (UniProt P12314). The experiment can be described thus: AlphaScreen or HTRF; competitive: biotinylated human IgG1 (200 ng/mL) on streptavidin donor beads, His-tagged FcγR (200 ng/mL) on nickel chelate acceptor beads, unlabeled competitor antibody in serial dilutions; 1xPBS, 0.05% BSA, 0.01% Tween 20, pH 7.2; RT 1 h; IC50 interpolated at 50% maximal activity. Background: Bead proximity is the source of the signal in Alpha formats.

Experiment [4] has as its target His-tagged FcγRIIIa (R&D Systems, cat no. 4325-FC) (UniProt P08637). The description is as above.
In experiment [5] the target is His-tagged FcγRIIa (R&D Systems, cat no. 1330-CD/CF) (UniProt P12318). The description is as above.

Substance “JNJ-61186372 - NF (EGFR x c-Met bispecific antibody, normal fucose)” came in with an ADCC against H1975 cells with donor PBMCs, EC20 (antibody concentration needed to elicit 20% lysis) in experiment [1] of 0.15 nM. In experiment [1], the ADCC against H1975 cells with donor PBMCs, Emax (% compared to complete lysis) came out at 40%. The ADCC against HCC-827 cells with donor PBMCs, EC20 (antibody concentration needed to elicit 20% lysis) in experiment [2] was 0.645 nM. Besides, the ADCC against HCC-827 cells with donor PBMCs, Emax (% compared to complete lysis) in experiment [2] amounted to 30%. Further, the pIC50 was 7.94 in experiment [3], 7.42 in experiment [4] and 5.97 in experiment [5].

Regarding “JNJ-61186372 - LF (EGFR x c-Met bispecific antibody, low fucose)”, in experiment [1], the ADCC against H1975 cells with donor PBMCs, EC20 (antibody concentration needed to elicit 20% lysis) amounted to 0.0015 nM and the ADCC against H1975 cells with donor PBMCs, Emax (% compared to complete lysis) is 59%. For the same substance, in experiment [2], the ADCC against HCC-827 cells with donor PBMCs, EC20 (antibody concentration needed to elicit 20% lysis) was determined as 0.0376 nM and the ADCC against HCC-827 cells with donor PBMCs, Emax (% compared to complete lysis) was found to be 31%. The substance also showed a pIC50 in experiment [3] of 8.04. Moreover, in experiment [4], the pIC50 is 8.00. This substance also had a pIC50 in experiment [5] of 6.02.

With IgG1 isotype - NF (antibody), the pIC50 was 8.06 in experiment [3], 7.49 in experiment [4] and 5.90 in experiment [5].
